{"source": "patent US20230151068A1", "binders": {"B1": {"name": "R07W variant of SEQ ID NO: 1 (designed binder)", "chain": "GSPDEYIEWAKECCKKGDIQCCLRYFEESGDPNVMLICLFCP"}, "B2": {"name": "A08W variant of SEQ ID NO: 1 (designed binder)", "chain": "B1 chain with W9R, A10W"}, "B3": {"name": "K09W variant of SEQ ID NO: 1 (designed binder)", "chain": "B1 chain with W9R, K11W"}, "B4": {"name": "E10W variant of SEQ ID NO: 1 (designed binder)", "chain": "B1 chain with W9R, E12W"}, "B5": {"name": "P01Y variant of SEQ ID NO: 1 (designed binder)", "chain": "B1 chain with P3Y, W9R"}, "B6": {"name": "D02Y variant of SEQ ID NO: 1 (designed binder)", "chain": "B1 chain with D4Y, W9R"}, "B7": {"name": "E03Y variant of SEQ ID NO: 1 (designed binder)", "chain": "B1 chain with E5Y, W9R"}, "B8": {"name": "I05Y variant of SEQ ID NO: 1 (designed binder)", "chain": "B1 chain with I7Y, W9R"}, "B9": {"name": "E06Y variant of SEQ ID NO: 1 (designed binder)", "chain": "B1 chain with E8Y, W9R"}, "B10": {"name": "R07Y variant of SEQ ID NO: 1 (designed binder)", "chain": "B1 chain with W9Y"}, "B11": {"name": "A08Y variant of SEQ ID NO: 1 (designed binder)", "chain": "B1 chain with W9R, A10Y"}, "B12": {"name": "K09Y variant of SEQ ID NO: 1 (designed binder)", "chain": "B1 chain with W9R, K11Y"}, "B13": {"name": "E10Y variant of SEQ ID NO: 1 (designed binder)", "chain": "B1 chain with W9R, E12Y"}, "B14": {"name": "D02P variant of SEQ ID NO: 1 (designed binder)", "chain": "B1 chain with D4P, W9R"}, "B15": {"name": "E03P variant of SEQ ID NO: 1 (designed binder)", "chain": "B1 chain with E5P, W9R"}, "B16": {"name": "Y04P variant of SEQ ID NO: 1 (designed binder)", "chain": "B1 chain with Y6P, W9R"}, "B17": {"name": "I05P variant of SEQ ID NO: 1 (designed binder)", "chain": "B1 chain with I7P, W9R"}, "B18": {"name": "E06P variant of SEQ ID NO: 1 (designed binder)", "chain": "B1 chain with E8P, W9R"}, "B19": {"name": "R07P variant of SEQ ID NO: 1 (designed binder)", "chain": "B1 chain with W9P"}, "B20": {"name": "A08P variant of SEQ ID NO: 1 (designed binder)", "chain": "B1 chain with W9R, A10P"}, "B21": {"name": "K09P variant of SEQ ID NO: 1 (designed binder)", "chain": "B1 chain with W9R, K11P"}, "B22": {"name": "E10P variant of SEQ ID NO: 1 (designed binder)", "chain": "B1 chain with W9R, E12P"}, "B23": {"name": "K13G variant of SEQ ID NO: 1 (designed binder)", "chain": "B1 chain with W9R, K15G"}, "B24": {"name": "K14G variant of SEQ ID NO: 1 (designed binder)", "chain": "B1 chain with W9R, K16G"}}, "target": "biotinylated His-Avi-TEAD (194-411) (UniProt P28347)", "experiment": "SSM screen, enrichment after two rounds of sorting", "note": "Substitutions are numbered along the chain they refer to. In names and notes the source's numbering stands.", "data": [{"binder": "B1", "values": [{"measurement": "enrichment score", "result": -1.28}]}, {"binder": "B2", "values": [{"measurement": "enrichment score", "result": -5.46}]}, {"binder": "B3", "values": [{"measurement": "enrichment score", "result": -4.41}]}, {"binder": "B4", "values": [{"measurement": "enrichment score", "result": -1.58}]}, {"binder": "B5", "values": [{"measurement": "enrichment score", "result": -3.33}]}, {"binder": "B6", "values": [{"measurement": "enrichment score", "result": -1.63}]}, {"binder": "B7", "values": [{"measurement": "enrichment score", "result": -0.36}]}, {"binder": "B8", "values": [{"measurement": "enrichment score", "result": -10.9}]}, {"binder": "B9", "values": [{"measurement": "enrichment score", "result": -2.33}]}, {"binder": "B10", "values": [{"measurement": "enrichment score", "result": -1.01}]}, {"binder": "B11", "values": [{"measurement": "enrichment score", "result": -3.35}]}, {"binder": "B12", "values": [{"measurement": "enrichment score", "result": -4.96}]}, {"binder": "B13", "values": [{"measurement": "enrichment score", "result": -5.61}]}, {"binder": "B14", "values": [{"measurement": "enrichment score", "result": -2.11}]}, {"binder": "B15", "values": [{"measurement": "enrichment score", "result": -0.4}]}, {"binder": "B16", "values": [{"measurement": "enrichment score", "result": 1.02}]}, {"binder": "B17", "values": [{"measurement": "enrichment score", "result": -0.43}]}, {"binder": "B18", "values": [{"measurement": "enrichment score", "result": -2.84}]}, {"binder": "B19", "values": [{"measurement": "enrichment score", "result": -2.49}]}, {"binder": "B20", "values": [{"measurement": "enrichment score", "result": -4.7}]}, {"binder": "B21", "values": [{"measurement": "enrichment score", "result": -4.5}]}, {"binder": "B22", "values": [{"measurement": "enrichment score", "result": -3.72}]}, {"binder": "B23", "values": [{"measurement": "enrichment score", "result": 0.7}]}, {"binder": "B24", "values": [{"measurement": "enrichment score", "result": 1.11}]}]}
